# According to patent publication US20140099332A1 (IMMUNOGEN, published 2014):
# Where “and” joins values, the source holds several entries; their conditions need not be identical. Equal entries are not always repeated.
# Tests used:
# [1] = target: T1, human folate receptor 1 (FOLR1) on cells (human, UniProt P15328 25-234); assay: laser scanning cytometry on cell lines, optimal dilution 1:200
# T1 construct: also called FRA; huFolR1
# Method: (§1) Three cell lines with varying levels of FOLR1 expression were selected as representative of high expression (KB), low expression (OVCAR3), and no expression (A549). Unlabeled FR1-9 and FR1-13, as well as a commercial anti-FOLR1 antibody (“commercial FRA”), were titrated, and optimal titrations were determined for each of the antibodies using laser scanning cytometry (LSC) detection on the selected cell lines. […] Optimal dilutions were identified for each antibody as follows: 1:5 for commercial FRA, 1:100 for muFR1-9, and 1:200 for muFR1-13.
# [2] = target: T1, human folate receptor 1 (FOLR1) on cells; assay: indirect flow cytometry, T47D cells, Alexa-488 goat anti-mouse
# Method: (§2) To assure that materials were continuously performing as expected, all antibodies were screened for binding by both ELISA and flow cytometry methods known in the art. Flow cytometry was performed using FOLR1 expressing human T47D cells cultured using in-vitro cell culture techniques known in the art. The antibodies were bound to these cells and detected indirectly using a goat anti-murine Alexa-fluor 488 detection antibody on a FACScalibur machine (FIG. 6A-B).
# [3] = target: T2, human FolR1-Fc fusion protein (human; mouse, UniProt P15328 25-233); assay: sandwich ELISA (Folate ELISA): 1 ug/ml FR1-64, 1 ug/ml FR1-13-Biotin, FOLR1-Fc titrated
# T2 construct: The construct encodes the 233 amino acids from the N-terminal signal peptide to just upstream of the GPI linkage site; also called huFOLR1-Fc; human folate receptor 1 Fc fusion molecule; not shown: residues encoded by the Pst1 to BamHI oligonucleotide linker
# T2 sequence (P15328 25-233): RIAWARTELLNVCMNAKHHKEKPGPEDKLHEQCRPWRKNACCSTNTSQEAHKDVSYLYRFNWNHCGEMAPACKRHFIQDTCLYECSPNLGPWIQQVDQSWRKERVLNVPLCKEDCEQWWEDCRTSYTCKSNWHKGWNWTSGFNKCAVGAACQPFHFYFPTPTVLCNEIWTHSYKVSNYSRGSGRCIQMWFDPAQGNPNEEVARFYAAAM
# FOLR2 = target: T3, FOLR2 (UniProt P14207 17-230, limits assumed); assay: ELISA on FOLR2-His antigen, antibody titrated ([Ab] (M)); positive control FR2 Ab reaches about 0.42 [left graph (FOLR2-His]
# T3 construct: also called folate receptor 2
# T3 sequence (P14207 17-230 limits assumed): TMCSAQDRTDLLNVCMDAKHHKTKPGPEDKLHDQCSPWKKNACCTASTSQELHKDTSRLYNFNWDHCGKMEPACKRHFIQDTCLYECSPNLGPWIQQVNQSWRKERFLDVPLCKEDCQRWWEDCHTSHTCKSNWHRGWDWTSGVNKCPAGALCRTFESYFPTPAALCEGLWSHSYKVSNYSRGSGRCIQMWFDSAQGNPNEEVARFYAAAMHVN
# [4] = target: T4, FOLR1 (antigen of the screening ELISAs, form not stated) (human, UniProt P15328 25-234); assay: competition ELISA: serial concentrations of competing murine clone against a constant concentration of (biotinylated) muFR1-13
# T4 construct: It may be the FOLR1-Fc fusion; also called the same antigen; the target
# T4 sequence (P15328 25-234 limits assumed): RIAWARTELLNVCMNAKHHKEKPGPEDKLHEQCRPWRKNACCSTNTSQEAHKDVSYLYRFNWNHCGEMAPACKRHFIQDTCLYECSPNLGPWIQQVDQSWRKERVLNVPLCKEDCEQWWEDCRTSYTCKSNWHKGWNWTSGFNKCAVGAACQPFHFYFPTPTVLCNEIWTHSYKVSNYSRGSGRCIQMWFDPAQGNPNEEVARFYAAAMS
# [5] = target: T2, human FolR1-Fc fusion protein; assay: sandwich ELISA: Mu FOLR1-13 coated on the plate, FOLR-Fc fusion titrated, detected with Hu Mov19 and polyclonal goat anti-human HRP
# FOLR3 = target: T5, FOLR3 (human, UniProt P41439 23-245, limits assumed); assay: ELISA with FOLR3-His antigen titrated ([Ag ug/ml]); positive control reaches about 2.6 after 3 min development [right graph (FOLR3-His]
# T5 construct: also called folate receptor 3
# T5 sequence (P41439 23-245 limits assumed): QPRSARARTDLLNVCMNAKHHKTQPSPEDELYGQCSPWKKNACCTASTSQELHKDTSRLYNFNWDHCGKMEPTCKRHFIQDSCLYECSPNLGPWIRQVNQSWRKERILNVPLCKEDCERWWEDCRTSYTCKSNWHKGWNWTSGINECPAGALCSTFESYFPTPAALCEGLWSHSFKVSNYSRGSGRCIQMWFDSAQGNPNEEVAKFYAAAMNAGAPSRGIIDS
# [6] = target: T1, human folate receptor 1 (FOLR1) on cells; assay: apparent binding affinity 'by both methods': flow cytometry on T47D cells and ELISA; lower end of the range given for FR1-13; flow cytometry on T47D cells and ELISA
# Method: as §2
# [7] = target: T1, human folate receptor 1 (FOLR1) on cells; assay: apparent binding affinity 'by both methods': flow cytometry on T47D cells and ELISA; upper end of the range given for FR1-13; flow cytometry on T47D cells and ELISA
# Method: as §2
# [8] = target: T2, human FolR1-Fc fusion protein; assay: sandwich ELISA (FOLR1 ELISA): clone coated on the plate as capture antibody, FOLR-Fc fusion titrated, format as in FIG. 1
# Method: The 40 clones were alternatively coated onto the assay plate in place of muFR1-9 in the diagram, and the resulting binding curves were analyzed shown in FIG. 5. Antibodies that contained the lowest half-maximal response (EC50) were considered to have the highest binding specificity to FOLR1, and thus were chosen as the top candidates for the assay.
# [9] = target: T1, human folate receptor 1 (FOLR1) on cells; assay: laser scanning cytometry on cell lines, optimal dilution 1:100
# Method: as §1
# [10] = target: T1, human folate receptor 1 (FOLR1) on cells; assay: apparent binding affinity 'by both methods': flow cytometry on T47D cells and ELISA; unit M taken from the preceding value; lower end of the range given for FR1-9; flow cytometry on T47D cells and ELISA
# Method: as §2
# [11] = target: T1, human folate receptor 1 (FOLR1) on cells; assay: apparent binding affinity 'by both methods': flow cytometry on T47D cells and ELISA; unit M taken from the preceding value; upper end of the range given for FR1-9; flow cytometry on T47D cells and ELISA
# Method: as §2
# T1 sequence (P15328 25-234): as the sequence (P15328 25-234 limits assumed) above
signal to background ration [1],EC50 (read off the curve) [2],EC50 (read off the curve) [3],IC50 (read off the curve) [4] [µg/mL],EC50 (read off the curve) [5] [nM],Kd [6] [nM],Kd [7] [nM],EC50 (read off the curve) [8] [nM],signal to background ration [9],Kd [10] [nM],Kd [11] [nM],Binder,binding result (FOLR2),binding result (FOLR3)
4.19,~1 nM and ~2 nM,~2 nM and ~3 nM,~0.07,~0.005,≥ 1,≤ 3,–,–,–,–,"muFR1-13 (antibody, mouse IgG2b, kappa, V domains shown, Murine monoclonal purified from hybridoma supernatant; also called muFR1-13b (biotinylated); Biotinylated FR1-13) VH: QVQLKESGPDLVAPSQSLSITCTVSGFSLSRYSVHWIRQPPGKGLEWLGMIWSGGNTDYNSVFKSRLNITKDNSKSQVFLKMNSLQTDDTAIYYCATFDGKVSWFAYWGQGTLVTVSA VL: SIVMTQTPKFLLVSTGDRFTITCKASQSVSNDVLWYQQKPGQSPKLLIYYAYNRYSGVPDRFTGSGYGTDFTFTITTVQSEDLAVYFCQQDHSSPFTFGSGTKLEIKR",no binding (tested: about 10^-8 M antibody),no binding (tested: about 2.5 ug/ml antigen)
–,–,–,–,–,–,–,~0.01,–,–,–,"muFR1-53 (antibody, mouse IgG1, kappa, V domains shown, The full-length chains differ from the variable domains by shifted residues) VH: QVQLQQSGPELVRPGASVKMSCKASGYKFTDYDISWVLQRTGQGLEWIGEIYPGSGRTYYNERFKGKATLTADKSSNTVYMQLSSLTSEDSAVYFCASSYYYGTNSPFAYWGQGTTLTVSS VL: DIQMTQTTSSLSASLGDRVTISCRASQDISNYLHWYQRKPDGTVKLLVYYTSRLQSGVPSRFSGSGSGTDYSLTISNLEQEDIATYFCQQGNSLPPTFGSGTKLEIKR",no binding (tested: about 10^-8 M antibody),no binding (tested: about 2.5 ug/ml antigen)
–,–,–,–,–,–,–,~0.004,4.07,≥ 2,≤ 4,"muFR1-9 (antibody, mouse IgG1, kappa, V domains shown, Murine monoclonal purified from hybridoma supernatant; Capture antibody of the sandwich ELISA; also called murine FR1-9) VH: QVQLVESGGGLVQPGGSRKLSCAASGFTFSSFGMHWVRQAPEKGLEWVAYISSGSSTFYYADTVKGRFTISRDNPKNTLFLQMTSLRSEDTAMYYCAKELTGTFAYWGQGTLVTVSA VL: DIVLTQSPATLSVTPGDSVSLSCRASQSINNNLHWYQQKSHESPRLLIKYASQSISGIPSRFSGSGSGTDFTLSINSVETEDFGMYFCQQSNSWPQVTFGAGTKLELKR",no binding (tested: about 10^-8 M antibody),no binding (tested: about 2.5 ug/ml antigen)
–,–,–,–,–,–,–,~0.01,–,–,–,"muFR1-62 (antibody, mouse IgG1, kappa, V domains shown, Murine monoclonal; The full-length light chain differs from the VL by shifted residues) VH: QVQLQQSGAELARPGASVKMSCKASGYTFTTYTMHWVKQRPGQGLEWIAYINPTSGYNNYNQKFKEKATLTADKSSSTAYMQLTSLTSEDSAVYYCASGGAYGRRPVDYWGQGTSVTVSS VL: DIVMTQSQKFMSISVGDRVSVTCKASQNVGTNVAWYQQKPGQSPKTLIYSASSRYSGVPDRFTGSGSGTDFTLTISNVQSEDLADYFCHQYNSYPYTFGGGTKLEIKR",no binding (tested: about 10^-8 M antibody),no binding (tested: about 2.5 ug/ml antigen)
